Source: patent US7786356B2, “Method for the production of calendic acid, a fatty acid containing delta 8,10,12 conjugated double bonds and related fatty acids having a modification at the delta 9 position” (E.I. du Pont de Nemours and Company, priority 1999, dated 2010)

B1: CalFad2-2: Calendula officinalis fatty acid modifying enzyme (cDNA SEQ ID NO:3, protein SEQ ID NO:4) forming conjugated double bonds at delta-9 position (protein, listed as Calendula officinalis)
chain: MGKAASAKKVLERVPISKPPFEYNDLKKAVPPHCFSRPLSRSLYFLFHDIIVTCILFYVASNYIHMLPRFLSCIVWPVYWISQGVFLGRLWMIGHECGHHSFSNYRWVDDTVGFLIHTATLTPYFSFKYSHRNHHAHTNSMEYDEVHIPKRKSEALYFEFLGNNPIGLMITMLCKLTFGYAAYIMFNYTGKKHKSGGLASHFYPQSPLFNDSERNHVLFSDIGICIVLYACYRIVTVTGAMPAFYVYGIPWVIMSAILFAATYLQHTHPSIPHYDTTEWNWLRGALSTIDRDLGFFNMNKTHYHVIHHLFPVIPEYHAQEATEAIKPILGQYYKYDGTPFLKALWREMKECIYVESDEGQKKQGIYWFKNKT
B2: DMFad2-2: Dimorphotheca sinuata Δ-9 hydroxy-conjugase (SEQ ID NO:12/13) converting trans-linoleic acid to dimorphecolic acid (protein, listed as Dimorphotheca sinuata)
chain: MGASEEMKVLERVPVSKPPFEYNDLKKAVPPHCFTRSLSLSFYYLFYDLIKVCILFYVASKYIPMLPYSLSCIVWPLYWFFQGAFLGRLWMIGHECGHHSFSNYRWLDDTVGFLVHTATLTPYFSFKYSHRNHHAHTNSLEYDEVHVPKIRKFKSEHLYSEFLTNNPFGLVVNMVFELTFGYPSYLIFNYSGRKLTQAGFASHLYPQSPIFNDSERNHVFFSDVGICIVLYALYRIAIAKGAMLVLYVYGLPWVVMSAFIFSLTYLQHTHPSIPHYDSTEWNWLRGALSSIDRELAGAFNIKKTHYHVVHHLFPFIPEYHAHDATEALKPILGPYYKYDGTPFYKALWREMKDCLYVESDDGPNKTGVYWFKTKT

Assays:
Type in all cases: cell-based
[1] = tested on: Saccharomyces cerevisiae INVSc1 cells; experiment: Expression of CalFad2-1 and CalFad2-2 in Saccharomyces cerevisiae; details: cells grown in media containing 2 mM linoleic acid, 4 days at 16° C.; (w/w) of total fatty acids
Excerpt: The Calendula officinalis clones CalFad2-1 and CalFad2-2 were digested with the restriction enzymes EcoRI and XhoI. The resulting DNA fragments containing the entire cDNA inserts were purified by agarose gel electrophoresis. The purified cDNAs were ligated into the EcoRI and XhoI sites of the Saccharomyces cerevisiae expression vector pYES2 (Invitrogen) using T4 DNA ligase (New England Biolabs). The resulting plasmids pYes2/CalFad2-1 and pYes2/CalFad2-2 were introduced into Saccharomyces cerevisiae INVSc1 (Invitrogen Corp.) cells by lithium acetate-mediated transformation [Sherman F, Fink G R, Hicks J B, Methods in Yeast Genetics: A Laboratory Course Manual, Cold Spring Harbor Lab. Press, Plainview, N.Y. (1987)]. Transformed cells were selected for their ability to grow in the absence of uracil. […] In cells grown in media containing linoleic acid, calendic acid (18:3Δ^8trans,10trans,12cis) was detected in amounts of up to 2.9% (w/w) of the total fatty acids of cultures expressing CalFad2-1 (FIG. 3) and in amounts of up to 0.2% of the total fatty acids of cultures expressing CalFad2-2. […] No calendic acid was detected in cultures harboring the expression vector without a cDNA insert or in cells grown in the absence of exogenous linoleic acid. […]

somatic soybean embryos [2] = experiment: Production of calendic acid in somatic soybean embryos expressing CalFad2-1 or CalFad2-2; details: single somatic embryos
Excerpt: The open-reading frames of these cDNAs were amplified by PCR in order generate the appropriate flanking restriction enzyme sites for cloning into the soybean expression vector. The oligonucleotide primers used for amplification of the CalFad2-1 open-reading frame were: 5′-ttgcggccgc[…]-3′ (sense, SEQ ID NO:18) and 5′-ttgcggccg[…]-3′ (antisense, SEQ ID NO:19). The oligonucleotide primers used for amplification of the CalFad2-2 coding sequence were: 5′-agcggccgcTATACCATGGGCAAG-3′ (sense, SEQ ID NO:20) and 5′-tgcggccgcTATGTTAAACTTC-3′ (antisense, SEQ ID NO:21). [Note: The sequences shown in lower case contain an added NotI site along with additional bases to facilitate restriction enzyme digestion.] The template was the cDNA corresponding to either EST ecs1c.pk009.n14 (CalFad2-1) or EST ecs1c.pk08.a24 (CalFad2-2), and Pfu polymerase (Stratagene) was used for the amplification reactions. The resulting PCR products were subcloned into the intermediate vector pCR-Script AMP SK(+) (Stratagene) according to the manufacturer's protocol. The amplified CalFad2-1 and CalFad2-2 coding sequences were then released with NotI digestion and then subcloned into the corresponding site of the soybean expression vector pKS67.
The PCR amplified coding sequences of CalFad2-1 and CalFa2-2 were fused with the β-conglycinin promoter and phaseolin termination sequences in vector pKS67 was transformed into somatic soybean embryos as follows. To induce somatic embryos, cotyledons, 3-5 mm in length dissected from surface sterilized, immature seeds of a soybean cultivar A2872 or JACK-910 were cultured in the light or dark at 26° C. on an appropriate agar medium for 6-10 weeks. Somatic embryos that produce secondary embryos were then excised and placed into a suitable liquid medium. After repeated selection for clusters of somatic embryos that multiplied as early, globular staged embryos, the suspensions were maintained as described below.
Soybean embryogenic suspension cultures were maintained in 35 mL liquid media on a rotary shaker, 150 rpm, at 26° C. with florescent lights on a 16:8 hour day/night schedule. Cultures were subcultured every two weeks by inoculating approximately 35 mg of tissue into 35 mL of liquid medium.
Soybean embryogenic suspension cultures were then transformed with the vector pKS67 containing the coding sequence for CalFad2-1 and CalFad2-2 by the method of particle gun bombardment (Klein et al. (1987) Nature (London) 327:70, U.S. Pat. No. 4,945,050). A Du Pont Biolisticä PDS1000/HE instrument (helium retrofit) was used for these transformations.
To […] of a 60 mg/mL […] gold particle suspension were added (in order): 5 mL DNA (1 mg/mL), 20 ml spermidine (0.1 M), and […] CaCl2 (2.5 M). The particle preparation was then agitated for three minutes, spun in a microfuge for 10 seconds and the supernatant removed. The DNA-coated particles were then washed once in 400 mL 70% ethanol and resuspended in 40 mL of anhydrous ethanol. The DNA/particle suspension was sonicated three times for one second each. Five mL of the DNA-coated gold particles was then loaded on each macro carrier disk.
Approximately 300-400 mg of a two-week-old suspension culture was placed in an empty 60×15-mm petri dish and the residual liquid removed from the tissue with a pipette. For each transformation experiment, approximately 5 to 10 plates of tissue were bombarded. Membrane rupture pressure was set at 1100 psi and the chamber was evacuated to a vacuum of 28 inches mercury. The tissue was placed approximately 3.5 inches away from the retaining screen and bombarded three times. Following bombardment, the tissue was divided in half and placed back into liquid and cultured as described above.
Five to seven days post bombardment, the liquid media was exchanged with fresh media, and eleven to twelve days post bombardment with fresh media containing […] hygromycin. This selective media was refreshed weekly. […]

somatic soybean embryos [3] = experiment: Production of dimorphecolic acid in transgenic somatic soybean embryos expressing DMFad2-1 and/or DMFad2-2
Excerpt: Initially, the open-reading frames of cDNAs for DMFad2-1 and DMFad2-2 were amplified by PCR using Pfu polymerase (Stratagene) to generate the appropriate restriction enzyme sites for cloning into the soybean expression vector. For amplification of the open-reading frame of the DMFad2-1 cDNA, EST dms2c.pk006.d7 (SEQ ID NO: 10 for the nucleotide sequence, and SEQ ID NO:11 for the polypeptide translation product) was used as the template, and the oligonucleotide primers were: 5′-tatgcggccgcAAATGGGAGCAGGAGGTTG-3′ (sense, SEQ ID NO:22) and 5′-tttgcggccgc[…]-3′ (antisense, SEQ ID NO:23). For amplification of the open-reading frame of the DMFad2-2 cDNA, EST dms2c.pk001.113 (SEQ ID NO:12 for the nucleotide sequence, and SEQ ID NO:13 for the polypeptide translation product) was used as the template, and the oligonucleotide primers were: 5′-tgcggccgc[…]-3′ (sense, SEQ ID NO:24) and 5′-tagcggccgcTGATTAATCAAGTCTTAG-3′ (antisense, SEQ ID NO:25). The nucleotides shown in lower case are not Dimorphotheca sequences, but instead encode an added NotI site along with additional bases to facilitate restriction enzyme digestion. The resulting PCR products were subcloned into the intermediate vector pCR-Script AMP SK(+) (Stratagene) according to the manufacturer's protocol. […]
The expression constructs containing the DMFad2-1 and DMFad2-2 coding sequences in vector pKS67 were transformed into somatic soybean embryos using the biolistic method as described in Example 10. […] The fatty acid compositions of the resulting transgenic soybean embryos were then assessed for the presence of novel fatty acid structures. […] The resulting transgenic soybean embryos selected for hygromycin resistance were analyzed for alterations in fatty acid content relative to untransformed embryos. […] The recovered fatty acid methyl esters and derivatives were then analyzed using a Hewlett-Packard 6890 chromatograph fitted with an Omegawax 320 column (30 m×0.32 mm inner diameter; Supelco). […] Fatty acid methyl esters were also analyzed by GC-MS an HP6890 interfaced with a HP5973 (Hewlett-Packard) mass selective detector. […]

[4] = n = 5, ± standard deviation, weight % of total fatty acids

Row | Molecule | calendic acid (18:3Δ8trans,10trans,12cis), amount of the total fatty acids [1] | Other, Fatty Acid Weight % (somatic soybean embryos [2]; n = 5, weight % of total fatty acids) | 16:0, Fatty Acid Weight % (somatic soybean embryos [2]; [4]) [Weight %] | 18:0, Fatty Acid Weight % (somatic soybean embryos [2]; [4]) [Weight %] | 18:1, Fatty Acid Weight % (somatic soybean embryos [2]; [4]) [Weight %] | 18:2, Fatty Acid Weight % (somatic soybean embryos [2]; [4]) [Weight %] | 18:3, Fatty Acid Weight % (somatic soybean embryos [2]; [4]) [Weight %] | Calendic Acid, Fatty Acid Weight % (somatic soybean embryos [2]; [4]) [Weight %] | dimorphecolic acid accumulation (somatic soybean embryos [3]; "DMFad2-2 alone" transformants) | 18:2Δ9cis,12trans in extracts of somatic soybean embryos (FIG. 9) (somatic soybean embryos [3]; embryo extracts of FIG. 9 panels B and C) | dimorphecolic acid isomers, share of the total fatty acids (somatic soybean embryos [3]; experiment MSE 229, GC-MS selected ion 225 m/z) [%]
1 | B1 | up to 0.2% | ≦1.7 Weight % | 12.3 ± 1.1 | 3.3 ± 0.5 | 8.6 ± 2.1 | 38.2 ± 3.4 | 17.7 ± 3.5 | 18.1 ± 3.6 | – | – | –
2 | B2 | – | – | – | – | – | – | – | – | less than 0.1% | lacked detectable amounts | < 0.1
